From patent US20180155451A1 (published 2018) come the findings set out here.

In assay [1] the target is T1, FcγRIa extracellular domain with C-terminal His tag (human, UniProt P12314 16-292).
T1 construct: extracellular domain; also called FcgRI; FcgRIa; not shown: His tag at the C terminus
Description: SPR (Biacore), antibody captured on chip, soluble FcgR as analyte; experiment 1.

In assay [2] the target is T2, FcγRIIa R type extracellular domain with C-terminal His tag (human, UniProt P12318 34-217).
T2 construct: extracellular domain; also called FcgRIIa R; FcgRIIaR; not shown: His tag at the C terminus
T2 sequence (looked up): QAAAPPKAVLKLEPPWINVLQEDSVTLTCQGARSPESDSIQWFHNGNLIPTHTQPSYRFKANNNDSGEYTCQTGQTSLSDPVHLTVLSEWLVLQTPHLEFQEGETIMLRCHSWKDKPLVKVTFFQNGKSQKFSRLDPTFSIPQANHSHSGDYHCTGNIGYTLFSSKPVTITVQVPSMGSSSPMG
The description is as above.

In assay [3] the target is T3, FcγRIIa H type extracellular domain with C-terminal His tag (human, UniProt P12318 34-217).
T3 construct: extracellular domain; also called FcgRIIa H; FcgRIIaH; not shown: His tag at the C terminus
T3 sequence (looked up): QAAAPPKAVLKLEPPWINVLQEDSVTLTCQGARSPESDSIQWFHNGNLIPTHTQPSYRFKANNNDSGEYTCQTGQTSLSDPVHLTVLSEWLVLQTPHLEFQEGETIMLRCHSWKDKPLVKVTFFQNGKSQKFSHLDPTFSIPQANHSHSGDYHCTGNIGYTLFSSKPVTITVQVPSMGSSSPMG
Described as above.

For assay [4], the target named is T4, FcγRIIb extracellular domain with C-terminal His tag (human, UniProt P31994 43-217).
T4 construct: extracellular domain; also called FcgRIIb; 2b; not shown: His tag at the C terminus
T4 sequence (looked up): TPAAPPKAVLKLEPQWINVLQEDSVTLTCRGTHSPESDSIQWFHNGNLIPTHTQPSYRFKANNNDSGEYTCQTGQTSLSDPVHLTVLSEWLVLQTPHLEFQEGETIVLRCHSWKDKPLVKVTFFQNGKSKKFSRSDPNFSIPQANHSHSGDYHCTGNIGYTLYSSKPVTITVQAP
The description is as above.

In assay [5] the target is T5, FcγRIIIa F type extracellular domain with C-terminal His tag (human, UniProt P08637 17-208).
T5 construct: extracellular domain; also called FcgRIIIa F; FcgRIIIaF; not shown: His tag at the C terminus
Described as above.

The target of assay [6] is T6, FcγRIIIa V type extracellular domain with C-terminal His tag (human, UniProt P08637 17-208).
T6 construct: extracellular domain; also called FcgRIIIa V; FcgRIIIaV; not shown: His tag at the C terminus
The description is as above.

For assay [7], the target named is T1, FcγRIa extracellular domain with …. Description: SPR (Biacore), antibody captured on chip, soluble FcgR as analyte; experiment 1 (second row of this antibody). On the procedure:
(§1) Antibodies of interest were analyzed for the interaction to FcgR according to the method described in Reference Example 8.
(§2) Analysis of interaction between obj ective antibody and the FcγR was carried out using Biacore T100 (GE Healthcare), Biacore T200, Biacore A100, and Biacore 4000. HBS-EP+ (GE Healthcare) was used as the running buffer, and the measurement temperature was set to 25° C. Chips produced by immobilizing the antigen peptide by the amine coupling method to a Series S sensor Chip CM5 (GE Healthcare), chips produced by allowing preliminarily biotinylated antigen peptides to interact with and immobilize onto a Series S Sensor Chip SA (certified) (GE Healthcare), chips produced by immobilizing Protein L (ACTIGEN, BioVision) to Series S Sencor Chip CM5 (GE Healthcare), or chips produced by immobilizing Protein A/G (Thermo Scientific) to Series S Sencor Chip CM5 (GE Healthcare) were used. Antibodies of interest were captured onto these chips, and allowed to interact to each FcγR diluted with running buffer. To regenerate and repeatedly use the chip, the antibodies captured onto the chip were washed off by reacting 10 mM glycine-HCl, pH 1.5.

The target of assay [8] is T2, FcγRIIa R type extracellular domain …. The description is as above. The procedure: as §1, §2
Assay [9] addresses T3, FcγRIIa H type extracellular domain …. The assay is described as above. The procedure: as §1, §2
Assay [10] deals with T4, FcγRIIb extracellular domain with …. The assay is described as above. On the procedure:
as §1, §2

Assay [11] addresses T5, FcγRIIIa F type extracellular domain …. The description is as above. On the procedure: as §1, §2
The target in assay [12] is T6, FcγRIIIa V type extracellular domain …. The description is as above. The procedure:
as §1, §2

T1 sequence (P12314 16-292): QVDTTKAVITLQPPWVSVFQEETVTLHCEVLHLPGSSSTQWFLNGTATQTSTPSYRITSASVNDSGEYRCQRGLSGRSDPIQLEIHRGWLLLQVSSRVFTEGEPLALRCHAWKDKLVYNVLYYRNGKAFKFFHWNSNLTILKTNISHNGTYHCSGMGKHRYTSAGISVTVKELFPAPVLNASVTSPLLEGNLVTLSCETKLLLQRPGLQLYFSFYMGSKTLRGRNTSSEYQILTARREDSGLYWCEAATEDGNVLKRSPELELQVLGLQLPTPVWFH
T5 sequence (P08637 17-208): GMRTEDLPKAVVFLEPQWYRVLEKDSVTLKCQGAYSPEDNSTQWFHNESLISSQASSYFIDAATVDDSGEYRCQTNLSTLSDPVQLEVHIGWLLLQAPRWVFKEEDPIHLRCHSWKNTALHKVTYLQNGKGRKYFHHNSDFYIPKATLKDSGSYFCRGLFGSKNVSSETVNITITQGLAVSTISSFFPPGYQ
T6 sequence (P08637 17-208 F176V): as the sequence (P08637 17-208) above, with F160V counted along it

B1: H240-FA030/H240-FB059/L73-k0 (antibody, human IgG1, kappa)
heavy 1: QDQLVQSGAEVKKPGASVKVSCKASGFNIKDTYIQWVRQAPGQGLEWMGRIDPLRKQTKYREKFEGRVTITADTSTNTAYMELSSLRSEDTAVYYCVRSGREFDYWGQGTLVTVSSASTKGPSVFPLAPSSKSTSGGTAALGCLVKDYFPEPVTVSWNSGALTSGVHTFPAVLQSSGLYSLSSVVTVPSSSLGTKTYTCNVNHKPSNTKVDKKVEPKSCDKTHTCPPCPAPEYYWGPSVFLFPPKPKDTLMISRTPEVTCVVVDVSDEEPKVKFNWYVDGVEVHNAKTKPREEQYNATYRVVSVLTVLHQDWLNGKEYKCKVSNKALPAPIEKTISKAKGQPREPQVYTLPPSRKEMTKNQVSLTCLVKGFYPSDIAVEWESNGQPENNYKTTPPVLDSDGSFFLYSKLTVDKSRWQQGNVFSCSVMHEALHNRYTQKSLSLSP
heavy 2: QDQLVQSGAEVKKPGASVKVSCKASGFNIKDTYIQWVRQAPGQGLEWMGRIDPLRKQTKYREKFEGRVTITADTSTNTAYMELSSLRSEDTAVYYCVRSGREFDYWGQGTLVTVSSASTKGPSVFPLAPSSKSTSGETAALGCLVEDYFPEPVTVSWNSGALTSGVHTFPAVLQSSGLYSLSSVVTVPSSSLGTQTYICNVNHKPSNTKVDKKVEPKSCDKTHTCPPCPAPELLGGPSVFLFPPKPKDTLMISRTPEVTCVVVDVSHEEPEVQFNWYVDGVEVHNAETKPREEQYNSTYRVVSVLTVLHQDWLNGKEYKCKVSNDALPMPIEETISKAKGQPREPQVYTLPPSREEMTKNQVSLTCLVKGFYPSDIAVEWESNGQPENNYKTTPPVLDSDGSFFLYSKLTVDKSRWQQGNVFSCSVMHEALHNHYTQESLSLSP
light: DIQMTQSPSSLSASVGDRVTITCRASQDIHKYIAWYQQKPGQAPRLLIQYTSTLQPGVPSRFSGSGSGTDYTFTISSLQPEDIATYYCLQYEQLRTFGGGTKVEIKRTVAAPSVFIFPPSDEQLKSGTASVVCLLNNFYPREAKVQWKVDNALQSGNSQESVTEQDSKDSTYSLSSTLTLSKADYEKHKVYACEVTHQGLSSPVTKSFNRGEC
notes: Heterodimerized anti-EREG IgG1 antibody; A chain altered from H240-AK072, B chain altered from H240-BH076
As to B1, the Kd was found to be 0.12 nM in [1]; 250 nM in [2]; 85 nM in assay [3]; 1500 nM in [4]; 4.8 nM in assay [5]; 1.4 nM in assay [6]. For the same molecule, the Kd in assay [7] came out at 0.082 nM; in assay [8] it was 260 nM; in [9], 85 nM; in assay [10], 1500 nM; in assay [11], 3.9 nM; in assay [12], 1.2 nM.
